Test results reported in US20110065198A1 (NEXIGEN, published 2011).

What was measured:
[1] = target: T1, glutathione-S-transferase (GST) alone, not fused to Vif (UniProt P08515 1-218 = GST); test: GST pull-down, 35S in vitro translated protein, SDS-PAGE autoradiography, FIG. 3c lane 14
Description: (§1) Lanes 7 to 12 represent the respective pull-down results of the afore-mentioned radioactively labelled in vitro translated proteins by GST-Vif glutathione sepharose beads. […] Lanes 13 to 18 represent the control for the specificity of the GST pulldown experiment, i.e. for the binding specificity of the in vitro translated proteins to Vif. Therefore, lanes 13 to 18 in particular represent the results of GST pull-down, wherein GST was used alone, i.e. without being fused to Vif.
(§2) The binding of interaction candidates to Vif was performed with shaking for one hour at room temperature in binding buffer containing 20 mM NaCl, 20 mMTris pH 8.0, 0.5% NP40 and bovine serum albumine 100 μg/ml. After incubation beads were pelleted by spinning at 500 g for 2 min. and 4 washing steps with 1 ml washing buffer (binding buffer without serum albumin) were followed.

[2] = target: T1, glutathione-S-transferase (GST) alone, …; test: GST pull-down, 35S in vitro translated protein, SDS-PAGE autoradiography, FIG. 3b lane 13
[3] = target: T1, glutathione-S-transferase (GST) alone, …; test: GST pull-down, 35S in vitro translated protein, SDS-PAGE autoradiography, FIG. 3c lane 15
Description: as §1, §2

[4] = target: T1, glutathione-S-transferase (GST) alone, …; test: GST pull-down, 35S in vitro translated protein, SDS-PAGE autoradiography, FIG. 3b lane 12

T1 sequence (P08515 whole entry, the tested form may be a part): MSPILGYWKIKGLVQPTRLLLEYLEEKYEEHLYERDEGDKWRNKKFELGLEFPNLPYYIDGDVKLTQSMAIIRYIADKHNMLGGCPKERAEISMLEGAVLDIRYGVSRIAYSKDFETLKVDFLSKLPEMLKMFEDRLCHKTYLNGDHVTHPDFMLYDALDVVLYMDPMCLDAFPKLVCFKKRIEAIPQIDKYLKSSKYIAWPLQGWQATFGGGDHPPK

B1: in vitro translated TPT1 (other, human, UniProt P13693 1-172, looked up)
chain: MIIYRDLISHDEMFSDIYKIREIADGLCLEVEGKMVSRTEGNIDDSLIGGNASAEGPEGEGTESTVITGVDIVMNHHLQETSFTKEAYKKYIKDYMKSIKGKLEEQRPERVKPFMTGAAEQIKHILANFKNYQFFIGENMNPDGMVALLDYREDGVTPYMIFFKDGLEMEKC
notes: also called TCTP
binding result [1]: no binding

VLIVCVPNPPIDEKNATMPVTMLIRVKTSEDADELHKILLEKKDA (other) [in vitro translated NUP50]
binding result [2]: no binding

B2: in vitro translated PTGES3 (other)
chain: RRDYVFIEFCVEDSKDVNVNFEKSKLTFSCLGGSDNFKHLNEIDLFHCIDPNDSKHKRTDRSILCCLRKGESGQSWPRLTKERAKLNWLSVDFNNWKDWEDDSDEDMSNFDRFSEMMNNMGGDEDVDLPEVDGADDDSQDSDDEKMPDLE
binding result [3]: no binding

B3: in vitro translated HERC4 (other, human, UniProt Q5GLZ8 915-1057, looked up)
chain: AFHAGFHKVCGGKVLLLFQPNELQAMVIGNTNYDWKELEKNTEYKGEYWAEHPTIKIFWEVFHELPLEKKKQFLLFLTGSDRIPILGMKSLKLVIQSTGGGEEYLPVSHTCFNLLDLPKYTEKETLRSKLIQAIDHNEGFSLI
binding result [4]: no binding
